# In patent publication US9315837B2, “Desaturases of a green microalga and uses thereof” (Ben Gurion University of the Negev Research and Development …, priority 2010, dated 2016):
# Values joined by “and” are separate entries in the source; they are usually repeats but may differ in a detail not shown here. Equal values may be shown once. Marks after values point to notes of the source that are not given here.
# Assays:
# [1] = tested on: supplied fatty acids in S. cerevisiae strain W303; assay: Functional expression of PiDes12, PiDes6 and PiDes5 in S. cerevisiae fed with fatty acid substrates, GC of FAMEs; type: cell-based, Saccharomyces cerevisiae; conditions: for substrate conversion (ARA emergence after addition of DGLA): PiDes5 transformant, total fatty acids
# Description: (§1) The open reading frames (ORFs) encoding for the […], Δ6, and Δ5 desaturases were amplified using PfuUltra II fusion HS DNA polymerase (Stratagene, La Jolla, Calif., USA) with the respective primer pairs (Table 1). The forward primers contained a restriction site (underlined) and a yeast translation consensus (double underlined) followed by ATG. The reverse primers contained a restriction site (underlined) and a stop codon (double underlined). Following restriction and ligation to the pYES2 vector (Invitrogen, Carlsbad, Calif., USA), the constructs were used to transform S. cerevisiae strain W303 by the PEG/lithium acetate method [R. D. Gietz, R. A. Woods, Yeast Transformation by the LiAc/SS Carrier DNA/PEG Method, in: W. Xiao (Ed.), Yeast Protocols, Second Edition, vol. 313, Methods in Molecular Biology, Humana Press Inc, Totowa, N. J., 2006, pp. 107-120]. The yeast cells harboring the empty pYES2 vector were used as control. Transformants were selected by uracil prototrophy on yeast synthetic medium (YSM) lacking uracil (Invitrogen, Carlsbad, Calif., USA). For functional expression, a minimal selection medium containing 2% (w/v) raffinose was inoculated with the pYPiDesΔ12, pYPiDesΔ6 or pYPiDesΔ5 transformants and grown at 27° C. for 24 h in a water bath shaker. Five ml of sterile YSM, containing 1% (w/v) Tergitol-40 and 250 µM of the appropriate fatty acid substrate was inoculated with raffinose-grown cultures to obtain an OD of 0.2 at 600 nm. Expression was induced by adding galactose to a final concentration of 2% (w/v) and cultures were further grown at 27° C. for 48 h. Cells were harvested by centrifugation, washed twice with 0.1% NaHCO^3, freeze-dried and used for fatty acid analysis.
# (§2) Fatty acid methyl esters (FAMES) were obtained by transmethylation of the freeze-dried P. incisa or yeast biomass, with dry methanol containing 2% H2SO4 (v/v) and heating at 80° C. for 1.5 h while stirring under an argon atmosphere. Gas chromatographic analysis of FAMES was performed on a Thermo Ultra Gas chromatograph (Thermo Scientific, Italy) equipped with PTV injector, FID detector and a fused silica capillary column (30 m×0.32 mm; ZB WAXplus, Phenomenex). FAMES were identified by co-chromatography with authentic standards (Sigma Chemical Co., St. Louis, Mo.; Larodan Fine Chemicals, Malmo, Sweden) and FAME of fish oil (Larodan Fine Chemicals). Each sample was analyzed in duplicates of three independent experiments. The structures of fatty acids were confirmed by GC-MS of their pyrrolidine derivatives [W. W. Christie, The analysis of fatty acids in: W. W. Christie (Ed.), Lipid analysis Isolation, separation, identification and structural analysis of lipids, vol. 15, Third edition, The Oily Press, Bridgewater, England, 2003, pp. 205-225] on HP 5890 equipped with a mass selective detector (HP 5971A) utilizing a HP-5 capillary column and a linear temperature gradient from 120 to 300° C.
# The functional activities of the proteins encoded by PiDes12, PiDes6 and PiDes5 were examined by heterologous expression in S. cerevisiae. To this aim, the pYES2 constructs pYPiDes12, pYPiDes6 and pYPiDes5 containing the ORFs for PiDes12, PiDes6, and PiDes5, respectively, were transformed into S. cerevisiae. […] An attempt to improve the expression of the recombinant protein and to increase the activity by the modification of yeast translation consensus was not successful.
# PiDes6 and PiDes5 expressions were induced in the presence of the main ω6 substrates for Δ6 or Δ5 fatty acid desaturases, 18:2ω6 and 20:3ω6, respectively. New peaks corresponding to 18:3ω6 and 20:4ω6, respectively, were detected, confirming the predicted function of PiDes6 and PiDes5. […] PiDes6 was not active on […] either, whereas PiDes5 desaturated it to the non-methylene-interrupted 20:4^Δ5,11,14,17. PiDes5 converted 20:4ω3 into the respective Δ5 product, 20:5ω3 (EPA) as well as the added 18:1 into the non-methylene-interrupted 18:2^Δ5,9 (FIG. 3). […]
# [2] = tested on: 20:3ω6 in lipid classes of S. cerevisiae; assay: Fatty acid analysis of individual lipid classes of S. cerevisiae expressing the PiDes5 ORF, fed with 20:3ω6; type: cell-based, Saccharomyces cerevisiae; conditions: for % conversion: 24 h after feeding 20:3ω6
# Description: as §1, §2
# The biomass of S. cerevisiae was heated with isopropanol at 80° C. for 10 min and lipids were extracted by the method of Bligh-Dyer (1959) [E. G. Bligh, W. J. Dyer, A rapid method of total lipid extraction and purification, Can. J. Biochem. Physiol. 37 (1959) 911-917]. Total lipid extract was separated into neutral and polar lipids by silica Bond-Elute cartridges (Varian, Calif.) using 1% of ethanol in chloroform (v/v) and methanol to elute neutral and polar lipids, respectively [Z. Cohen, S. Didi, Y. M. Heimer, Overproduction of γ-linolenic and eicosapentaenoic acids by algae, Plant Physiol. 98 (1992) 569-572]. […]
# [3] = substrate 18:1^Δ9, PiDesΔ5 product 18:2^Δ5,9, product/(substrate + product)
# [4] = substrate 18:3^Δ9,12,15, PiDesΔ6 product 18:4^Δ6,9,12,15, PiDesΔ5 product 18:4^Δ5,9,12,15 (tentative identification)
# [5] = substrate 20:3^Δ11,14,17, PiDesΔ5 product 20:4^Δ5,11,14,17
molecule,measurement,setting,value
"PiDes12: P. incisa Δ12 desaturase, predicted protein of 380 amino acids, SEQ ID NO: 1 (protein, listed as Parietochloris incisa) MGKGGCYQAGPPSAKKWESRVPTAKPEFTIGTLRKAIPVHCFERSIPRSFAYLAADLAAIAVMYYLSTFIDHPAVPRVLAWGLLWPAYWYFQGAVATGVWVIAHECGHQAFSPYQWLNDAVGLVLHSCLLVPYYSWKHSHRRHHSNTGSTTKDEVFVPREAAMVESDFSLMQTAPARFLVIFVSLTAGWPAYLFANASGRKYGKWANHFDPYSPIFTKRERSEIVVSDVALTVVIAGLYSLGKAFGWAWLVKEYVIPYLIVNMWLVMITLLQHTHPELPHYADKEWDWLRGALATCDRSYGGMPDHLHHHIADTHVAHHLFSTMPHYHAQEATEAIKPILGKYYKQDKRNVWAALWEDFSLCRYVAPDTAGSGILWFRA",desaturation activity,[1]; heterologous expression in yeast,very low desaturation activity
same,peak corresponding to 18:2,[1]; yeast transformed with pYPiDes12,0.3 % of TFA
"PiDes5: P. incisa Δ5 desaturase, predicted protein of 482 amino acids, SEQ ID NO: 3 (protein, listed as Parietochloris incisa) MMAVTEGAGGVTAEVGLHKRSSQPRPAAPRSKLFTLDEVAKHDSPTDCWVVIRRRVYDVTAWVPQHPGGNLIFVKAGRDCTQLFDSYHPLSARAVLDKFYIGEVDVRPGDEQFLVAFEEDTEEGQFYTVLKKRVEKYFRENKLNPRATGAMYAKSLTILAGLALSFYGTFFAFSSAPASLLSAVLLGICMAEVGVSIMHDANHGAFARNTWASHALGATLDIVGASSFMWRQQHVVGHHAYTNVDGQDPDLRVKDPDVRRVTKFQPQQSYQAYQHIYLAFLYGLLAIKSVLLDDFMALSSGAIGSVKVAKLTPGEKLVFWGGKALWLGYFVLLPVVKSRHSWPLLAACWLLSEFVTGWMLAFMFQVAHVTSDVSYLEADKTGKVPRGWAAAQAATTADFAHGSWFWTQISGGLNYQVVHHLFPGICHLHYPAIAPIVLDTCKEFNVPYHVYPTFVRALAAHFKHLKDMGAPTAIPSLATVG",substrate conversion (ARA emergence after addition of DGLA),[1]; after 3 h,10.9% and 10.6%
same,substrate conversion (ARA emergence after addition of DGLA),[1]; after 24 h,15.1%
same,Desaturase product and conversion (%) of supplied fatty acid,[1]; [3],"18:2^Δ5,9 (4.2) %"
same,Desaturase product and conversion (%) of supplied fatty acid,[1]; [4],"18:4^Δ5,9,12,15** (1.4) %"
same,Desaturase product and conversion (%) of supplied fatty acid,"[1]; substrate 20:3^Δ8,11,14, PiDesΔ5 product 20:4^Δ5,8,11,14","20:4^Δ5,8,11,14 (16.4) %"
same,Desaturase product and conversion (%) of supplied fatty acid,[1]; [5],"20:4^Δ5,11,14,17 (10.0) %"
same,Desaturase product and conversion (%) of supplied fatty acid,"[1]; substrate 20:4^Δ8,11,14,17, PiDesΔ5 product 20:5^Δ5,8,11,14,17","20:5^Δ5,8,11,14,17 (17.1) %"
same,"20:4ω6, fatty acid composition",[2]; lipid class DAG,2.0 % of total fatty acids
same,% conversion,[2]; lipid class DAG,24.0%
same,"20:4ω6, fatty acid composition",[2]; lipid class FFA,3.6 % of total fatty acids
same,% conversion,[2]; lipid class FFA,17.2%
same,"20:4ω6, fatty acid composition",[2]; lipid class PC,3.6 % of total fatty acids
same,% conversion,[2]; lipid class PC,24.2%
same,"20:4ω6, fatty acid composition",[2]; lipid class PE,1.6 % of total fatty acids
same,% conversion,[2]; lipid class PE,24.6%
same,"20:4ω6, fatty acid composition",[2]; lipid class PI + PS,1.1 % of total fatty acids
same,% conversion,[2]; lipid class PI + PS,18.1%
same,"20:4ω6, fatty acid composition",[2]; lipid class SE,1.1 % of total fatty acids
same,% conversion,[2]; lipid class SE,8.4%
same,"20:4ω6, fatty acid composition",[2]; lipid class TAG,2.0 % of total fatty acids
same,% conversion,[2]; lipid class TAG,9.3%
same,20:4ω6 share by lipid class (% of total lipid),[2]; share found in lipid class DAG,1.4 % TL
same,20:4ω6 share by lipid class (% of total lipid),[2]; share found in lipid class FFA,9.1 % TL
same,20:4ω6 share by lipid class (% of total lipid),[2]; share found in lipid class PC,25.7 % TL
same,20:4ω6 share by lipid class (% of total lipid),[2]; share found in lipid class PE,2.3 % TL
same,20:4ω6 share by lipid class (% of total lipid),[2]; share found in lipid class PI + PS,4.4 % TL
same,20:4ω6 share by lipid class (% of total lipid),[2]; share found in lipid class SE,1.8 % TL
same,20:4ω6 share by lipid class (% of total lipid),[2]; share found in lipid class TAG,55.2 % TL
"PiDes6: P. incisa Δ6 desaturase, predicted protein of 481 amino acids, SEQ ID NO: 2 (protein, listed as Parietochloris incisa) MCQGQAVQGLRRRSSFLKLTGDAIKGAVAAISDFNKLPAATPVFARRSLSDSALQQRDGPRSKQQVTLEELAQHNTPEDCWLVIKNKVYDVSGWGPQHPGGHVIYTYAGKDATDVFACFHAQTTWSQLRPFCIGDIVEEEPMPALLKDFRELRTRLQQQGLFRSNKLYYLYKVASTLSLLAAALAVLITQRDSWLGLVGGAFLLGLFWQQSGWLAHDFLHHQVFTDRQWNNVMGYFLGNVCQGFSTDWWKSKHNVHHAVPNELDSDSKAARDPDIDTLPLLAWSSEMLDSMSNSGARLFVRMQHYFFFPILLFARMSWCQQSVAHASDLSRTSKAGVYELAYLALHYAWFLGAAFSVLPPLKAVVFALLSQMFSGFLLSIVFVQSHNGMEVYSDTKDFVTAQIVSTRDILSNVWNDWFTGGLNYQIEHHLFPTLPRHNLGKVQKSIMELCHKHGLVYENCGMATGTYRVLQRLANVAAEA",Desaturase product and conversion (%) of supplied fatty acid,[1]; [3],neither active
same,Desaturase product and conversion (%) of supplied fatty acid,"[1]; substrate 18:2^Δ9,12, PiDesΔ6 product printed 18:2^Δ6,9,12, product/(substrate + product)","18:2^Δ6,9,12 (5.1) %"
same,Desaturase product and conversion (%) of supplied fatty acid,[1]; [4],"18:4^Δ6,9,12,15 (4.5) %"
same,Desaturase product and conversion (%) of supplied fatty acid,[1]; [5],not active
